# In IntAct's records for PubMed 11779178:
# B1: Merlin (Homo sapiens), P35240-3 (parent)
# chain: MAGAIASRMSFSSLKRKQPKTFTVRIVTMDAEMEFNCEMKWKGKDLFDLVCRTLGLRETWFFGLQYTIKDTVAWLKMDKKVLDHDVSKEEPVTFHFLAKFYPENAEEELVQEITQHLFFLQVKKQILDEKIYCPPEASVLLASYAVQAKYGDYDPSVHKRGFLAQEELLPKRVINLYQMTPEMWEERITAWYAEHRGRARDEAEMEYLKIAQDLEMYGVNYFAIRNKKGTELLLGVDALGLHIYDPENRLTPKISFPWNEIRNISYSDKEFTIKPLDKKIDVFKFNSSKLRVNKLILQLCIGNHDLFMRRRKADSLEVQQMKAQAREEKARKQMERQRLAREKQMREEAERTRDELERRLLQMKEEATMANEALMRSEETADLLAEKAQITEEEAKLLAQKAAEAEQEMQRIKATAIRTEEEKRLMEQKVLEAEVLALKMAEESERRAKEADQLKQDLQEAREAERRAKQKLLEIATKPTYPPMNPIPAPLPPDIPSFNLIGDSLSFDFKDTDMKRLSMEIEKEKVEYMEKSKHLQEQLNELKTEIEALKLKERETALDILHNENSDRGGSSKHNTIKKPQAQGRRPICI
# What was measured:
# [1] = variants of: B1; conditions: with eif3c_human EIF3C
# HGS, O14964-2 = variants of: B1; conditions: with HGS
# HGS, O14964-1 = variants of: B1; conditions: with HGS
# NF2, P35240-1 = variants of: B1; conditions: with NF2, P35240-1
# [2] = variants of: B1; conditions: with sptb2_human SPTBN1, Q01082
# Chain of sptb2_human SPTBN1, Q01082 (Q01082 whole entry): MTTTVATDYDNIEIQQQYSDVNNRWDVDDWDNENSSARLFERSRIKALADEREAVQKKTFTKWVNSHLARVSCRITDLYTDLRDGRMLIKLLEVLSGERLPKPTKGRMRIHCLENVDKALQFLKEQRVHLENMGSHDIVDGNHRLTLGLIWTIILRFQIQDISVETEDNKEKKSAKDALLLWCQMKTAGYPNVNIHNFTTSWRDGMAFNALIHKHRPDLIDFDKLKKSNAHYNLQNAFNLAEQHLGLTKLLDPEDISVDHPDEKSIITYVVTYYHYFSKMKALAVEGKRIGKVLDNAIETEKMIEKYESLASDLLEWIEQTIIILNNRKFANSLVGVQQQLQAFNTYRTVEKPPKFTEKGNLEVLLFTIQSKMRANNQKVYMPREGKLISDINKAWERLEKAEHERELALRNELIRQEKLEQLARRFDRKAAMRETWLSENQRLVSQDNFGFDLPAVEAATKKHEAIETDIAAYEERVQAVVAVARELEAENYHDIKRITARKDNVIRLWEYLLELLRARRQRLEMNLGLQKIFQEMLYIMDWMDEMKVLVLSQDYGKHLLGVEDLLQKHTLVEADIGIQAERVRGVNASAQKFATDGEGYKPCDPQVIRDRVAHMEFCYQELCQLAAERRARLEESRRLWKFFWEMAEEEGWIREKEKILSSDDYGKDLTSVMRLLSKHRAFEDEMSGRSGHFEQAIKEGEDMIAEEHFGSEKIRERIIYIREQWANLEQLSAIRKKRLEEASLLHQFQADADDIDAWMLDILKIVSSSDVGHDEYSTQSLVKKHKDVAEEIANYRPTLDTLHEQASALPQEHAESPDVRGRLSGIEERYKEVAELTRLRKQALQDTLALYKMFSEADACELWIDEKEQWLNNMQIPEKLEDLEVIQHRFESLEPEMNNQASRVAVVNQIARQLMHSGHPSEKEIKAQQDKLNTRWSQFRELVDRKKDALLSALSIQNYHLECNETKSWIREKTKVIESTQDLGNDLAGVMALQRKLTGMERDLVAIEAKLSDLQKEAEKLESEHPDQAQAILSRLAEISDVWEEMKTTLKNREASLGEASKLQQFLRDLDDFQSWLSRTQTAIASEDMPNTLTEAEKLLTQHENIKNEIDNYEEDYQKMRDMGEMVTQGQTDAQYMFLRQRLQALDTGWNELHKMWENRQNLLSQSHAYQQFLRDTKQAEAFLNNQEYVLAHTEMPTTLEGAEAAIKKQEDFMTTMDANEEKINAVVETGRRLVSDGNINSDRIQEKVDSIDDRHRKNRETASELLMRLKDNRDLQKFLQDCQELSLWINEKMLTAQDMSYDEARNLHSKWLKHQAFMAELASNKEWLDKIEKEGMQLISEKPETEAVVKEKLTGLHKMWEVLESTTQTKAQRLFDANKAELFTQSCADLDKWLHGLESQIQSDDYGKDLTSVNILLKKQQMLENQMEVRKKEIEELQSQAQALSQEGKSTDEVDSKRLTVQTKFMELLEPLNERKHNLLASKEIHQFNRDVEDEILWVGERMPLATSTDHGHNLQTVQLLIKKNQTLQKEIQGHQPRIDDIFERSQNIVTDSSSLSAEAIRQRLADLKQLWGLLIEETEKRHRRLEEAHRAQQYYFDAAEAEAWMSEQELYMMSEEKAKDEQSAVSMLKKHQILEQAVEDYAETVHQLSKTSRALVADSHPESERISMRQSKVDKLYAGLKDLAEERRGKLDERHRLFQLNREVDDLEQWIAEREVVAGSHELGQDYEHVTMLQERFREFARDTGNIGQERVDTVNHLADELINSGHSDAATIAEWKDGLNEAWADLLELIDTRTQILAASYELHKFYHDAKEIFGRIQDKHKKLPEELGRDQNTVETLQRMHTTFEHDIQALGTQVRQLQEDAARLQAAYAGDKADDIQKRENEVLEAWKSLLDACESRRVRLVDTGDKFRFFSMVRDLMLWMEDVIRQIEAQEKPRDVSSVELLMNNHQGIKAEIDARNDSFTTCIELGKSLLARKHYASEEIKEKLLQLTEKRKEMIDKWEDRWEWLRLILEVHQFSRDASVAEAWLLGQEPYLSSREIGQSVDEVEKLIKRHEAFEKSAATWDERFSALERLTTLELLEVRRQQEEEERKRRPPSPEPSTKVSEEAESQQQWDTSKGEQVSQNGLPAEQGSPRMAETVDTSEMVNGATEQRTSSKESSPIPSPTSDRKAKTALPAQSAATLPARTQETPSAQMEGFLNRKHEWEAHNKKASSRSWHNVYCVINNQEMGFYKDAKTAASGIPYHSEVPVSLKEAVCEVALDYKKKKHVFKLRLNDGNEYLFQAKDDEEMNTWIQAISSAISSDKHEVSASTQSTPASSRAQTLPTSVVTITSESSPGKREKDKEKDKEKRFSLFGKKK
# Chain of HGS, O14964-2 (O14964 other isoform, or with tags, fused parts or gaps): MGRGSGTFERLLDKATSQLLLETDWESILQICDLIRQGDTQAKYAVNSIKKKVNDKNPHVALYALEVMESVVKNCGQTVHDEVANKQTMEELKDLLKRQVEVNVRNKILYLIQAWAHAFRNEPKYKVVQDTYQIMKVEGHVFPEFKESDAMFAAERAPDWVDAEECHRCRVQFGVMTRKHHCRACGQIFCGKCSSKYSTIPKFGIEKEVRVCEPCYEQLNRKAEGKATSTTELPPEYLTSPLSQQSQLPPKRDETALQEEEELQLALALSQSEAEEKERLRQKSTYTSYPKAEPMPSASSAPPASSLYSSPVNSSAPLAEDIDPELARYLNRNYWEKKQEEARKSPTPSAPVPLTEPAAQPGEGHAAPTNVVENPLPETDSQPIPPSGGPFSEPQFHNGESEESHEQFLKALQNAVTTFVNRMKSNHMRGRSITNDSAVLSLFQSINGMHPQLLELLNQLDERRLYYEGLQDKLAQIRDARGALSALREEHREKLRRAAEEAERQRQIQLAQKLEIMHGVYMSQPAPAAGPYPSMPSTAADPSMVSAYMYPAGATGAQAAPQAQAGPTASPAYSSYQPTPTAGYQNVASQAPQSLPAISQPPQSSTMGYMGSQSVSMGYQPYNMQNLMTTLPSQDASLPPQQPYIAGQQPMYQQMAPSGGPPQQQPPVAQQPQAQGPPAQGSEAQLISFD
# Chain of HGS, O14964-1 (O14964 whole entry): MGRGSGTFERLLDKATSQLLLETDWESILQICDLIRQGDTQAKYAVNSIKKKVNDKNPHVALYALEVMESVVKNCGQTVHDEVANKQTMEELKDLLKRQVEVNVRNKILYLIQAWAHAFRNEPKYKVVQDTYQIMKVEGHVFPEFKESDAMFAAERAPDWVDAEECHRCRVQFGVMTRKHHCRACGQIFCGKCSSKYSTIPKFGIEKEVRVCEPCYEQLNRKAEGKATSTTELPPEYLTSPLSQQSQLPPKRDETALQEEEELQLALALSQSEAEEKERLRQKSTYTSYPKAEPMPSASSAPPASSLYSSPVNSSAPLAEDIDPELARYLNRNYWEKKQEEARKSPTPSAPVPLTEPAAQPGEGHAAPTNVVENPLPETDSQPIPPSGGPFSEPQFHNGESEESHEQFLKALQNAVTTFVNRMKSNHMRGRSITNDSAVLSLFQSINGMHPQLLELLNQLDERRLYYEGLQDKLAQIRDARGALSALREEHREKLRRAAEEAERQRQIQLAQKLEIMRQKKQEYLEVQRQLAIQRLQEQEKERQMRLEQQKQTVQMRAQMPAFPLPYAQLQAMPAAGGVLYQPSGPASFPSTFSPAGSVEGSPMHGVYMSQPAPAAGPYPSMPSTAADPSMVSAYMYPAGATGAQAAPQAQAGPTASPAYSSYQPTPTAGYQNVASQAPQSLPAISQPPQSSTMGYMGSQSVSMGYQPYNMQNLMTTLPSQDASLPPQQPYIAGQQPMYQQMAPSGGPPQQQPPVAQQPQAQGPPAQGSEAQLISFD
effect of a mutation on the interaction [1],"effect of a mutation on the interaction (HGS, O14964-2)","effect of a mutation on the interaction (HGS, O14964-1)","effect of a mutation on the interaction (NF2, P35240-1)",effect of a mutation on the interaction [2],Variant
increasing interaction strength,disrupting interaction strength,disrupting interaction strength,decreasing interaction strength,disrupting interaction strength,Q538P
increasing interaction strength,with no effect,increasing interaction strength,decreasing interaction strength,decreasing interaction strength,T352M
disrupting interaction strength,disrupting interaction strength,disrupting interaction strength,decreasing interaction strength,disrupting interaction strength,L535P
increasing interaction strength,disrupting interaction strength,disrupting interaction strength,decreasing interaction strength,decreasing interaction strength,L360P
disrupting interaction strength,disrupting interaction strength,disrupting interaction strength,decreasing interaction strength,disrupting interaction strength,K364I

# The next lines start with the variant.
Variant,effect of a mutation on the interaction [1],"effect of a mutation on the interaction (HGS, O14964-2)","effect of a mutation on the interaction (HGS, O14964-1)","effect of a mutation on the interaction (NF2, P35240-1)",effect of a mutation on the interaction [2]
V219M,with no effect,with no effect,increasing interaction strength,with no effect,increasing interaction strength
I273F,decreasing interaction strength,increasing interaction strength,increasing interaction strength,with no effect,increasing interaction strength
G197C,with no effect,with no effect,with no effect,increasing interaction strength,decreasing interaction strength
N220Y,with no effect,increasing interaction strength,increasing interaction strength,with no effect,increasing interaction strength
